From patent publication US20220281948A1 (UNIVERSITY HEALTH NETWORK, published 2022)
Numbering of substitutions follows the chain as printed. Names may count otherwise.

Assays:
[1] = target: T1, soluble CD4 (sCD4): human CD4 extracellular domain fused with a 6×His tag via a GS linker, dimerized with a … (human, UniProt P01730 26-396); test: flow cytometry, sCD4 MFI of K562 cells
T1 construct: also called soluble CD4 protein; soluble CD4 dimer

[2] = target: T2, recombinant 10× His-tagged CD4 protein (extracellular domain of human CD4, GS linker, 10× histidine tag) (human, UniProt P01730 26-390); test: biolayer interferometry
T2 construct: also called recombinant CD4; sCD4 (analyte)

[3] = target: T2, recombinant 10× His-tagged CD4 protein …; test: BLI KD set against the earlier estimate of KD >2 mM between CD4 and HLA class II
[4] = target: T2, recombinant 10× His-tagged CD4 protein …; test: biolayer interferometry (Octet Red), biotinylated DP4 on streptavidin sensors, CD4 as analyte, steady-state fit
[5] = target: T1, soluble CD4 (sCD4): human CD4 …; test: flow cytometry, K562 cells

B1: V114M (other)
DP alpha chain: IKADHVSTYAAFVQTHRPTGEFMFEFDEDEMFYVDLDKKETVWHLEEFGQAFSFEAQGGLANIAILNNNLNTLIQRSNHTQATNDPPEVTVFPKEPVELGQPNTLICHIDKFFPPVLNVTWLCNGELVTEGVAESLFLPRTDYSFHKFHYLTFVPSAEDFYDCRVEHWGLDQPLLKHWEAQEPIQMPETTET
DP beta chain: RATPENYLFQGRQECYAFNGTQRFLERYIYNREEFARFDSDVGEFRAVTELGRPAAEYWNSQKDILEEKRAVPDRMCRHNYELGGPMTLQRRVQPRVNVSPSKKGPLQHHNLLMCHVTDFYPGSIQVRWFLNGQEETAGVVSTNLIRNGDWTFQILVMLEMTPQQGDVYTCQVEHTSLDSPVTVEWKAQSDSARSK
notes: also called DP4 with the single V114M substitution on K562 cells
binding result [1]: no binding

B2: L112W/V114M/M158I (other)
DP alpha chain: B1 DP alpha chain
DP beta chain: B1 DP beta chain with L112W, M158I
notes: also called DP4 reversion mutant on K562 cells
binding result [1]: no binding

B3: L112W/V114M (other)
DP alpha chain: B1 DP alpha chain
DP beta chain: B1 DP beta chain with L112W
notes: as for B2
binding result [1]: no binding

B4: V114M/M158I (other)
DP alpha chain: B1 DP alpha chain
DP beta chain: B1 DP beta chain with M158I
notes: as for B2
binding result [1]: no binding

B5: M158I (other)
DP alpha chain: B1 DP alpha chain
DP beta chain: B1 DP beta chain with M114V, M158I
notes: also called DP4 with the single M158I substitution on K562 cells
binding result [1]: no binding

B6: L112W/M158I (other)
DP alpha chain: B1 DP alpha chain
DP beta chain: B1 DP beta chain with L112W, M114V, M158I
notes: as for B2
binding result [1]: no binding

B7: biotinylated recombinant wild-type DP4 (extracellular domains of DPA1*01:03 and wild-type DPB1*04:01, leucine zippers) (other)
MHC II alpha: IKADHVSTYAAFVQTHRPTGEFMFEFDEDEMFYVDLDKKETVWHLEEFGQAFSFEAQGGLANIAILNNNLNTLIQRSNHTQATNDPPEVTVFPKEPVELGQPNTLICHIDKFFPPVLNVTWLCNGELVTEGVAESLFLPRTDYSFHKFHYLTFVPSAEDFYDCRVEHWGLDQPLLKHWEAQEPIQMPETTETGGGGSLEIRAAFLRQRNTALRTEVAELEQEVQRLENEVSQYETRYGPLGGGKGSHHHHHHHHHH
MHC II beta: RATPENYLFQGRQECYAFNGTQRFLERYIYNREEFARFDSDVGEFRAVTELGRPAAEYWNSQKDILEEKRAVPDRMCRHNYELGGPMTLQRRVQPRVNVSPSKKGPLQHHNLLVCHVTDFYPGSIQVRWFLNGQEETAGVVSTNLIRNGDWTFQILVMLEMTPQQGDVYTCQVEHTSLDSPVTVEWKAQSDSARSKGGGGSLEIEAAFLERENTALETRVAELRQRVQRLRNRVSQYRTRYGPLGGGKGSGLNDIFEAQKIEWHE
notes: also called biotinylated wild-type DP4 (ligand)
binding result [2]: no binding (tested: 26 µM)

B8: biotinylated recombinant DP4^[change]/[change] (extracellular domains of DPA1*01:03 and DPB1*04:01 [ (other)
MHC II alpha: B7 MHC II alpha
MHC II beta: B7 MHC II beta with L112W, V141M
fold improvement in the binding affinity [3]: ≥ 200 fold | Kd [4]: 8.9 µM

B9: wild-type DP4 (DPA1*01:03 / DPB1*04:01) on K562 cells (other, human)
MHC II alpha: not shown
MHC II beta: not shown
notes: whole, on cells; also called HLA-DP4
binding result [5]: no binding
